# According to publication PMC8169799 (iScience, 2021):
# Target: the molecule itself
# Assay: cryo-EM structure
protein,measurement,value
"copper efflux regulator (CueR), Escherichia coli (natural protein, E. coli) MNISDVAKITGLTSKAIRFYEEKGLVTPPMRSENGYRTYTQQHLNELTLLRQARQVGFNLEESGELVNLFNDPQRHSADVKRRTLEKVAEIERHIEELQSMRDQLLALANACPGDDSADCPIIENLSGCCHHRAG",stoichiometry N,2
